# Molecular target: T1, Factor XI from DEAE treated human plasma (human, UniProt P03951 19-625)
# T1 construct: mature; Plasma-derived, not purified when it was loaded on the Protein G column; also called FXI
# Test: Protein G column chromatography of 25 ml DEAE treated human plasma
# Procedure: Therefore, 25 ml DEAE treated human plasma was subjected to a 1 ml Protein G column, to which IgG's selectively bound while more than 99% of the loaded Factor XI appeared in the flowthrough. Thus, a biological fluid containing Factor XI and depleted of IgG's was obtained.
# T1 sequence (P03951 19-625 limits assumed): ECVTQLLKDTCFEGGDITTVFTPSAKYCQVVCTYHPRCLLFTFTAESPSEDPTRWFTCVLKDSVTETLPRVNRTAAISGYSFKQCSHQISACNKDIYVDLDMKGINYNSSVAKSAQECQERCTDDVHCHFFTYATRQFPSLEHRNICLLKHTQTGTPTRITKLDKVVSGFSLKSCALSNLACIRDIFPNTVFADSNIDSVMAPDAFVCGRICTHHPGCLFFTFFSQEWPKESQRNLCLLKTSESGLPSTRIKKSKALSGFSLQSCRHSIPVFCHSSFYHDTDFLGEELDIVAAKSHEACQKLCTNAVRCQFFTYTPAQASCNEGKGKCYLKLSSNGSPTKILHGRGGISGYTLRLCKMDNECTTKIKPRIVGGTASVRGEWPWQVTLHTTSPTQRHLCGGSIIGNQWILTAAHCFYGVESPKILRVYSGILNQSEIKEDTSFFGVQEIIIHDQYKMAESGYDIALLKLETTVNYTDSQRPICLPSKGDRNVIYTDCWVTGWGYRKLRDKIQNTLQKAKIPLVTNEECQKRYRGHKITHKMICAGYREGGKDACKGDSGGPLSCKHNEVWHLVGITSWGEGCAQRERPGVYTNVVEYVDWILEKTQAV
binder,measurement,value
"Protein G (1 ml Protein G column) (other, UniProt P19909 303-497, looked up, Immobilised Protein G) TYKLILNGKTLKGETTTEAVDAATAEKVFKQYANDNGVDGEWTYDDATKTFTVTEKPEVIDASELTPAVTTYKLVINGKTLKGETTTEAVDAATAEKVFKQYANDNGVDGEWTYDDATKTFTVTEKPEVIDASELTPAVTTYKLVINGKTLKGETTTKAVDAETAEKAFKQYANDNGVDGVWTYDDATKTFTVTE",binding result,no binding (tested: more than 99% in flowthrough)
